The results in this text go back to US20180353525A1.

The experiment concerns the target receptor for activated C kinase (RACK1), endogenous, HT-1080 cells (human) (UniProt P63244). Description: cell-based or functional assay.

Sequence of NHE6^527-588 peptide (pcDNA3-HA/NHE6^527-588) (Q92581 559-620): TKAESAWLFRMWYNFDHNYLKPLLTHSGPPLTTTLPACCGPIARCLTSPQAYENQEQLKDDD

In turn, “NHE6^527-588 peptide (pcDNA3-HA/NHE6^527-588)” gave a Fold (doxorubicin IC50 at 1% O2 against 21% O2) of 1.6 fold; an IC50 of doxorubicin, HT-1080 overexpressing the peptide, MTT viability, 1% O2 of 224 nM; an IC50 of doxorubicin, HT-1080 overexpressing the peptide, MTT viability, 21% O2 of 137 nM; an increase in drug sensitivity to Dox in cells exposed to hypoxia of 2.8 fold.
